First the molecules themselves.
B1: library; numbered along this chain (parent)
chain: MEVVDPQQLGMFTEGELMSVGMDTFIHRIDSTEVIYQPRRKRAKLIGKYLMGDLLGEGSYGKVKEVLDSETLCRRAVKILKKKKLRRIPNGEANVKKEIQLLRRLRHKNVIQLVDVLYNEEKQKMYMVMEYCVCGMQEMLDSVPEKRFPVCQAHGYFCQLIDGLEYLHSQGIVHKDIKPGNLLLTTGGTLKISDLGVAEALHPFAADDTCRTSQGSPAFQPPEIANGLDTFSGFKVDIWSAGVTLYNITTGLYPFEGDNIYKLFENIGKGSYAIPGDCGPPLSDLLKGMLEYEPAKRFSIRQIRQHSWFRKKHPPAEAPVPIPPSPDTKDRWRSMTVVPYLEDLHGADEDEDLFDIEDDIIYTQDFTVPGQVPEEEASHNGQRRGLPKAVCMNGTEAAQLSTKSRAEGRAPNPARKACSASSKIRRLSACKQQ

± gives the uncertainty stated by the source.

In this data set the parent is B1. The experiment in a line: STK11 functional score (HeLa growth suppression), rescaled enrichment; synonymous median = 1, nonsense median = 0 (normalised score). The conditions noted are these: with HeLa; variant type: missense. The method, then:
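Deep mutational scan (TileSeq/POPCode codon randomisation) of full-length codon-optimised STK11 cDNA integrated at a Bxb1 landing pad (AAVS1) in HeLa cells. Restoring functional STK11 suppresses HeLa proliferation. Variant frequencies were measured by NGS before and after about two weeks of growth. The error-corrected enrichment log-ratio was rescaled so that synonymous median = 1 and nonsense median = 0, scores above 1 were compressed, and codon-level and three biological replicate scores were combined; error is the bootstrapped standard error. Scale: synonymous median = 1, nonsense median = 0; below 0.5 = damaging.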
MEVVDPQQLGMFTEGELMSVGMDTFIHRIDSTEVIYQPRRKRAKLIGKYLMGDLLGEGSYGKVREVLDSETLCRRAVKILKKKKLRRIPNGEANVKKEIQLLRRLRHKNVIQLVDVLYNEEKQKMYMVMEYCVCGMQEMLDSVPEKRFPVCQAHGYFCQLIDGLEYLHSQGIVHKDIKPGNLLLTTGGTLKISDLGVAEALHPFAADDTCRTSQGSPAFQPPEIANGLDTFSGFKVDIWSAGVTLYNITTGLYPFEGDNIYKLFENIGKGSYAIPGDCGPPLSDLLKGMLEYEPAKRFSIRQIRQHSWFRKKHPPAEAPVPIPPSPDTKDRWRSMTVVPYLEDLHGADEDEDLFDIEDDIIYTQDFTVPGQVPEEEASHNGQRRGLPKAVCMNGTEAAQLSTKSRAEGRAPNPARKACSASSKIRRLSACKQQ [K64R]: the STK11 functional score turned out to be 1.4 ± 0.17.

Consider MEVVDPQQLGMFTEGELMSVGMDTFIHRIDSTEVIYQPRRKRAKLIGKYLMGDLLGEGSYGKVWEVLDSETLCRRAVKILKKKKLRRIPNGEANVKKEIQLLRRLRHKNVIQLVDVLYNEEKQKMYMVMEYCVCGMQEMLDSVPEKRFPVCQAHGYFCQLIDGLEYLHSQGIVHKDIKPGNLLLTTGGTLKISDLGVAEALHPFAADDTCRTSQGSPAFQPPEIANGLDTFSGFKVDIWSAGVTLYNITTGLYPFEGDNIYKLFENIGKGSYAIPGDCGPPLSDLLKGMLEYEPAKRFSIRQIRQHSWFRKKHPPAEAPVPIPPSPDTKDRWRSMTVVPYLEDLHGADEDEDLFDIEDDIIYTQDFTVPGQVPEEEASHNGQRRGLPKAVCMNGTEAAQLSTKSRAEGRAPNPARKACSASSKIRRLSACKQQ [K64W], for which the STK11 functional score worked out at 1.39 ± 0.16.

As to MEVVDPQQLGMFTEGELMSVGMDTFIHRIDSTEVIYQPRRKRAKLIGKYLMGDLLGEGSYGKVSEVLDSETLCRRAVKILKKKKLRRIPNGEANVKKEIQLLRRLRHKNVIQLVDVLYNEEKQKMYMVMEYCVCGMQEMLDSVPEKRFPVCQAHGYFCQLIDGLEYLHSQGIVHKDIKPGNLLLTTGGTLKISDLGVAEALHPFAADDTCRTSQGSPAFQPPEIANGLDTFSGFKVDIWSAGVTLYNITTGLYPFEGDNIYKLFENIGKGSYAIPGDCGPPLSDLLKGMLEYEPAKRFSIRQIRQHSWFRKKHPPAEAPVPIPPSPDTKDRWRSMTVVPYLEDLHGADEDEDLFDIEDDIIYTQDFTVPGQVPEEEASHNGQRRGLPKAVCMNGTEAAQLSTKSRAEGRAPNPARKACSASSKIRRLSACKQQ [K64S], the STK11 functional score turned out to be 1.53 ± 0.19.

Consider MEVVDPQQLGMFTEGELMSVGMDTFIHRIDSTEVIYQPRRKRAKLIGKYLMGDLLGEGSYGKVYEVLDSETLCRRAVKILKKKKLRRIPNGEANVKKEIQLLRRLRHKNVIQLVDVLYNEEKQKMYMVMEYCVCGMQEMLDSVPEKRFPVCQAHGYFCQLIDGLEYLHSQGIVHKDIKPGNLLLTTGGTLKISDLGVAEALHPFAADDTCRTSQGSPAFQPPEIANGLDTFSGFKVDIWSAGVTLYNITTGLYPFEGDNIYKLFENIGKGSYAIPGDCGPPLSDLLKGMLEYEPAKRFSIRQIRQHSWFRKKHPPAEAPVPIPPSPDTKDRWRSMTVVPYLEDLHGADEDEDLFDIEDDIIYTQDFTVPGQVPEEEASHNGQRRGLPKAVCMNGTEAAQLSTKSRAEGRAPNPARKACSASSKIRRLSACKQQ [K64Y], for which the STK11 functional score stood at 1.39 ± 0.39.

On to MEVVDPQQLGMFTEGELMSVGMDTFIHRIDSTEVIYQPRRKRAKLIGKYLMGDLLGEGSYGKVVEVLDSETLCRRAVKILKKKKLRRIPNGEANVKKEIQLLRRLRHKNVIQLVDVLYNEEKQKMYMVMEYCVCGMQEMLDSVPEKRFPVCQAHGYFCQLIDGLEYLHSQGIVHKDIKPGNLLLTTGGTLKISDLGVAEALHPFAADDTCRTSQGSPAFQPPEIANGLDTFSGFKVDIWSAGVTLYNITTGLYPFEGDNIYKLFENIGKGSYAIPGDCGPPLSDLLKGMLEYEPAKRFSIRQIRQHSWFRKKHPPAEAPVPIPPSPDTKDRWRSMTVVPYLEDLHGADEDEDLFDIEDDIIYTQDFTVPGQVPEEEASHNGQRRGLPKAVCMNGTEAAQLSTKSRAEGRAPNPARKACSASSKIRRLSACKQQ [K64V], for which the STK11 functional score amounted to 1.38 ± 0.19.

MEVVDPQQLGMFTEGELMSVGMDTFIHRIDSTEVIYQPRRKRAKLIGKYLMGDLLGEGSYGKVQEVLDSETLCRRAVKILKKKKLRRIPNGEANVKKEIQLLRRLRHKNVIQLVDVLYNEEKQKMYMVMEYCVCGMQEMLDSVPEKRFPVCQAHGYFCQLIDGLEYLHSQGIVHKDIKPGNLLLTTGGTLKISDLGVAEALHPFAADDTCRTSQGSPAFQPPEIANGLDTFSGFKVDIWSAGVTLYNITTGLYPFEGDNIYKLFENIGKGSYAIPGDCGPPLSDLLKGMLEYEPAKRFSIRQIRQHSWFRKKHPPAEAPVPIPPSPDTKDRWRSMTVVPYLEDLHGADEDEDLFDIEDDIIYTQDFTVPGQVPEEEASHNGQRRGLPKAVCMNGTEAAQLSTKSRAEGRAPNPARKACSASSKIRRLSACKQQ [K64Q]: the STK11 functional score stood at 1.58 ± 0.26.

For the variant MEVVDPQQLGMFTEGELMSVGMDTFIHRIDSTEVIYQPRRKRAKLIGKYLMGDLLGEGSYGKVTEVLDSETLCRRAVKILKKKKLRRIPNGEANVKKEIQLLRRLRHKNVIQLVDVLYNEEKQKMYMVMEYCVCGMQEMLDSVPEKRFPVCQAHGYFCQLIDGLEYLHSQGIVHKDIKPGNLLLTTGGTLKISDLGVAEALHPFAADDTCRTSQGSPAFQPPEIANGLDTFSGFKVDIWSAGVTLYNITTGLYPFEGDNIYKLFENIGKGSYAIPGDCGPPLSDLLKGMLEYEPAKRFSIRQIRQHSWFRKKHPPAEAPVPIPPSPDTKDRWRSMTVVPYLEDLHGADEDEDLFDIEDDIIYTQDFTVPGQVPEEEASHNGQRRGLPKAVCMNGTEAAQLSTKSRAEGRAPNPARKACSASSKIRRLSACKQQ [K64T], the STK11 functional score worked out at 1.08 ± 0.1.

These data come from the supplement of paper PMC12338614.
